Patent publication US20240317858A1 (Adimab, published 2024)
Substitutions are numbered along the chain they refer to.

Tests used:
[1] = molecular target: T1, Human CD3εδ Fc heterodimer (Hu CD3ε Fc + CD3δ Fc-HIS) (human, UniProt P07766 22-126; P04234 22-100); experiment: BLI (Octet), CD3εδ Fc on AHC sensor, 100 nM Fab
T1 construct: range 22-126;range 22-100; Made in HEK 293 cells with a heterologous signal peptide; also called Hu CD3εδ-Fc; CD3εδ Fc-HIS heterodimer; not shown: Fc; Fc followed by HIS tag
Description: (§1) Affinity of the anti-CD3 antibodies for CD3 was determined by measuring their kinetic constants (kₒₙ, koff, KD) on ForteBio Octet®. ForteBio affinity measurements were performed generally as previously described (Estep et al., MAbs. 2013 5(2):270-8). […] Sensors were equilibrated off-line in assay buffer for 30 minutes and then monitored on-line for 60 seconds for baseline establishment. For monovalent binding measurement, sensors with loaded CD3εδ Fc were exposed to 100 nM anti-CD3 Fab, as further described in Example 2 below] for 3 minutes, afterwards they were transferred to assay buffer for 3 minutes for off-rate measurement. Kinetics data were fit using a 1:1 binding model in the data analysis software provided by ForteBio.

[2] = molecular target: T2, Cynomolgus CD3εδ Fc heterodimer (Cy CD3ε Fc + CD3δ Fc-HIS) (cynomolgus, UniProt Q95LI5 22-117; Q95LI8 22-100); experiment: BLI (Octet), CD3εδ Fc on AHC sensor, 100 nM Fab
T2 construct: range 22-117;range 22-100; Made in HEK 293 cells with a heterologous signal peptide; also called Cy CD3εδ-Fc; cyno CD3εδ Fc; not shown: Fc; Fc followed by HIS tag
Description: as §1

[3] = molecular target: T3, Rhesus CD3εδ Fc heterodimer (rhesus); experiment: BLI (Octet), Fab monovalent, pH 7.4
T3 construct: extracellular domain; also called Rh CD3εδ-Fc
Description: (§2) ForteBio KD measurements (Biolayer interferometry; BLI). ForteBio affinity measurements were performed generally as previously described (Estep, P., et al., High throughput solution-based measurement of antibody-antigen affinity and epitope binning. MAbs, 2013. 5(2): p. 270-8.). Briefly, ForteBio affinity measurements were performed by loading IgGs or CD3εδ Fe-HIS heterodimer onto AHC sensors. Sensors were equilibrated off-line in assay buffer for 30 min and then monitored on-line for 60 seconds for baseline establishment. Sensors with loaded IgGs were exposed to 100 nM antigen (e.g., CD3) for 3 min, afterwards they were transferred to assay buffer for 10 min for off-rate measurement. Sensors loaded with CD3εδ Fe-HIS heterodimer were exposed to 100 nM anti-CD3 Fab for 3 min, afterwards they were transferred to assay buffer for 3 min or 10 min for off-rate measurement. Kinetics were analyzed using the 1:1 binding model. For measuring binding at different pHs, measurements were performed at pre-determined pHs (e.g., pH 7.4 and pH 6.0).
(§3) Anti-CD3 antibodies A001-A005, V002, V004, V007, V009, V010, V013, and V014-V019 were produced as IgG1s in CHO cells, and Fab fragments were generated from IgG1 antibodies by papain digestion and purification as described in Example 2. Human, cynomolgus, rhesus, and mouse CD3εδ Fc heterodimers were produced, and monovalent binding affinity and avidity at pH 7.4 and pH 6.0 were measured using the Octet® HTX instrument (ForteBio) as described in Example 2.

[4] = molecular target: T1, Human CD3εδ Fc heterodimer (Hu CD3ε Fc …); experiment: BLI (Octet), Fab monovalent, pH 7.4
Description: as §2, §3

[5] = molecular target: T2, Cynomolgus CD3εδ Fc heterodimer (Cy …); experiment: BLI (Octet), Fab monovalent, pH 7.4
Description: as §2, §3

[6] = molecular target: T1, Human CD3εδ Fc heterodimer (Hu CD3ε Fc …); experiment: BLI (Octet), Fab monovalent, pH 6.0
Description: as §2, §3

[7] = molecular target: T2, Cynomolgus CD3εδ Fc heterodimer (Cy …); experiment: BLI (Octet), Fab monovalent, pH 6.0
Description: as §2, §3

[8] = molecular target: T1, Human CD3εδ Fc heterodimer (Hu CD3ε Fc …); experiment: SPR (Biacore), Fab over immobilized CD3εδ Fc, pH 7.4
Description: (§4) Anti-CD3 antibodies A001-A005, V002, V004, V007, V009, V010, V013, and V014-V019 were produced in CHO cells, and Fab fragments were generated from IgG1 antibodies by papain digestion and purification as described in Example 2. Monovalent binding affinity at pH 7.4 and pH 6.0 was measured via surface plasmon resonance (SPR). Briefly, human or cynomolgus CD3εδ Fe heterodimer produced as described in Example 2 was immobilized to a CM5 sensor chip in a Biacore® X100 (Cytiva, previously GE Healthcare Life Sciences) to a response level of ˜500 RUs. Fabs were then injected at 3-fold increasing concentrations, ranging from 0.74-180 nM. The sensor chip was doubly regenerated between cycles using 0.35 M EDTA and 0.1 M NaOH. The resulting data were double reference subtracted and fit to a 1:1 binding model using Biacore® Evaluation Software.

[9] = molecular target: T2, Cynomolgus CD3εδ Fc heterodimer (Cy …); experiment: as above
Description: as §4

[10] = molecular target: T1, Human CD3εδ Fc heterodimer (Hu CD3ε Fc …); experiment: SPR (Biacore), Fab over immobilized CD3εδ Fc, pH 6.0
Description: as §4

[11] = molecular target: T2, Cynomolgus CD3εδ Fc heterodimer (Cy …); experiment: as above
Description: as §4

[12] = molecular target: T4, Cynomolgus CD3 on HSC-F cells (cynomolgus, UniProt Q95LI5 22-198); experiment: flow cytometry, 100 nM IgG1, pH 7.4
T4 construct: whole, on cells; Target is the endogenous CD3 complex on cells; also called Cyno CD3 HSC-F cells; Cyno CD3+ HSC-F cells
Description: (§5) Cell binding assays. CD3+ human Jurkat cells (ATCC) and CHO-S cells (Invitrogen/ThermoFisher) were thawed and washed with cold PBSF buffer, pH 7.4 (PBS+0.1% BSA, pH 7.4). About 200,000 cells were aliquoted per well of a 96-well plate (FACS Assay Plate VWR BD 353263) and pelleted by centrifugation (5 minutes at 500×g). The cells were washed with either PBSF pH 7.4 or PBSF pH 6.0 (PBS+0.1% BSA, pH 6.0), and then resuspended in 100 μl in either PBSF pH 7.4 or PBSF pH 6.0 with IgG1 antibody (100 nM) produced in yeast as described above or in CHO cells. The mixture (cells+antibody) was incubated for 20 minutes on ice, then washed twice with either PBSF pH 7.4 or PBSF pH 6.0. Cells were resuspended in 50 μl of propidium iodide (Roche; 1:500 dilution) and anti-human IgG-RPE (Southern Biotech; 1:100 dilution) prepared in either PBSF pH 7.4 or PBSF pH 6.0, then incubated for 20 minutes on ice in the dark before cells were washed twice with either PBSF pH 7.4 or PBSF pH 6.0. Binding was analyzed on FACS Canto II.
(§6) Anti-CD3 antibodies A001-A005, V002, V004, V007, V009, V010, V013, and V014-V019 were produced as IgG1s in CHO cells, and binding to human CD3+ Jurkat cells and cynomolgus CD3+ HSC-F cells at pH 7.4 was analyzed by flow cytometry as described in Example 2. NCB (Normalized Cell Binding) values were calculated based on control and sample MFI values as NCB={(Sample MFI)−(Secondary only MFI)}/(Secondary only MFI).

[13] = molecular target: T5, Human CD3 on CD3+ Jurkat cells (human, UniProt P07766 23-207); experiment: flow cytometry, 100 nM IgG1, pH 7.4
T5 construct: whole, on cells; Target is the endogenous CD3 complex on cells; also called Human CD3+ Jurkat cells
Description: as §5, §6

[14] = molecular target: T4, Cynomolgus CD3 on HSC-F cells; experiment: flow cytometry, 100 nM IgG
Description: (§7) Specificity of the anti-CD3 antibodies for human CD3+ Jurkat cells and Cynomolgus monkey HSC-F cells was determined using a FACS cell binding assay. Briefly, cells were thawed and washed with cold PBSF buffer (PBS+0.1% BSA, pH 7.4). About 200,000 cells were aliquoted per well of a 96-well plate and pelleted by centrifugation (5 minutes at 500×g). The cells were washed and resuspended in 100 μl PBSF with CHO-produced anti-CD3 IgG antibody (100 nM). The mixture (cells+antibody) was incubated for 20 minutes on ice, then washed twice with PBSF. Cells were resuspended in 50 μl of propidium iodide (1:500 dilution) and anti-human IgG-RPE (1:100 dilution) prepared in PBSF, then incubated for 20 minutes on ice in the dark before cells were washed twice with PBSF. Binding was analyzed on FACS Canto II. Also shown are results using cells without CD3 [CHO-S cells, Jurkat CD3 knockout (CD3−) cells, and HEK cells] for comparison, including results with Jurkat CD3-cells combined with anti-CD3 antibody Fab fragments (100 nM).

[15] = molecular target: T5, Human CD3 on CD3+ Jurkat cells; experiment: flow cytometry, 100 nM IgG
Description: as §7

T1 sequence (P07766 22-126, stated change not applied, form in doubt, chain 1 of 2): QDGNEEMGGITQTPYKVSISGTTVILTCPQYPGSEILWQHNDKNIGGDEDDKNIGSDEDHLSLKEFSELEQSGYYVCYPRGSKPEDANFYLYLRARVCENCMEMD
T1 sequence (P04234 22-100, stated change not applied, form in doubt, chain 2 of 2): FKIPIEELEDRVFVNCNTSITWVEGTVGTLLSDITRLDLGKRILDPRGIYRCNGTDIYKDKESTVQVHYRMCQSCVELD
T5 sequence (P07766 23-207): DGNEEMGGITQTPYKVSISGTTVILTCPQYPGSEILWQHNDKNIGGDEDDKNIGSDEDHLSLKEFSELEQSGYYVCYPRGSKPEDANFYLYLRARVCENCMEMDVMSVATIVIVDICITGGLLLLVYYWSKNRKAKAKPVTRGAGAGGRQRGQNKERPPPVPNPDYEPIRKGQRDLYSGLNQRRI
T2 sequence (Q95LI5 22-117, stated change not applied, form in doubt, chain 1 of 2): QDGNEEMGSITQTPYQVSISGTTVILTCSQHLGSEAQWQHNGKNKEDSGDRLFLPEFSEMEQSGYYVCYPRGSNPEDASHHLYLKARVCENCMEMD
T2 sequence (Q95LI8 22-100, stated change not applied, form in doubt, chain 2 of 2): as the sequence (P04234 22-100, stated change not applied, form in doubt, chain 2 of 2) above, with I5V, N15K, I20V, S32T, D33N, I34N, T64A, S74N counted along it
T4 sequence (Q95LI5 22-198): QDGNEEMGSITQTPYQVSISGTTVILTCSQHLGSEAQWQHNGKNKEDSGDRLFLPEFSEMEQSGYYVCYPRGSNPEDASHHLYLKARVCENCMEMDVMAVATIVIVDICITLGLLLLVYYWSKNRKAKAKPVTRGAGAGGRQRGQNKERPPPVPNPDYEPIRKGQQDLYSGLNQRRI

B1: Antibody No. V010 (ADI-70327) Fab (Fab, V domains shown)
VH: QVQLVQSGAEVKKPGASVKVSCKASGFDIKDYYMHWVRQAPGQRLEWIGWIELENDDTVYDAKFQGRVTITRDTSASTAYMELSSLRSEDTAVYYCARDAYGRYFYDVWGQGTLVTVSS
VL: DIVMSQSPDSLAVSLGERATINCKSSQSLLNARTGKNYLAWYQQKPGQPPKLLIYWASTRSSGVPDRFSGSGSGTDFTLTISSLQAEDVAVYYCVQSYFRRTFGGGTKVEIK
notes: Fab by papain digestion of the IgG1
Kd [1]: 1.92 nM | Kd [2]: 1.91 nM | Kd [3]: 4.4 nM | Kd [4]: 4.1 nM | Kd [5]: 3.4 nM | Kd [6]: 2 nM | Kd [7]: 1.9 nM | Kd [8]: 0.39 nM | Kd [9]: 0.45 nM | Kd [10]: 3.1 nM | Kd [11]: 0.82 nM

B2: Antibody No. A001 (ADI-26906) IgG1 (antibody, V domains shown)
VH: B1 VH with D28N, I48M, E52D, D56A, D57N, V59I
VL: B1 VL with S5T, S61E, V95K, F99S
notes: IgG1, CHO-produced
NCB (Normalized Cell Binding) [12]: 400 | NCB (Normalized Cell Binding) [13]: 289 | MFI [14]: 6050 MFI | MFI [15]: 3150 MFI

B3: Antibody No. V008 (ADI-70325) IgG1 (antibody, V domains shown)
VH: B1 VH with D28N, E52D, D56A, D57E, G66D
VL: B1 VL
notes: IgG1, CHO-produced
MFI [14]: 6400 MFI | MFI [15]: 3200 MFI

B4: Antibody No. V006 (ADI-67449) IgG1 (antibody, V domains shown)
VH: B1 VH with D28N, I29D, I48M, E52D, D56A, D57E, V59I, G66D
VL: B1 VL with S5T, S61E, V95K, F99S
notes: IgG1, CHO-produced
MFI [14]: 5750 MFI | MFI [15]: 3040 MFI

B5: Antibody No. V007 (ADI-67450) IgG1 (antibody, V domains shown)
VH: B1 VH with D28N, K30D, I48M, E52D, D56A, D57N, V59I, Y60D
VL: B1 VL with S5T, S61E, V95K, F99S
notes: IgG1, CHO-produced
NCB (Normalized Cell Binding) [12]: 368 | NCB (Normalized Cell Binding) [13]: 287 | MFI [14]: 5490 MFI | MFI [15]: 2930 MFI

B6: Antibody No. V003 (ADI-67446) IgG1 (antibody, V domains shown)
VH: B1 VH with I48M, D56A, V59I
VL: B1 VL with S5T, S61E, V95K, F99S
notes: IgG1, CHO-produced
MFI [14]: 6010 MFI | MFI [15]: 3020 MFI

B7: Antibody No. A002 (ADI-50024) IgG1 (antibody, V domains shown)
VH: B1 VH with D28N, E52D, D56A, D57N
VL: B1 VL
notes: IgG1, CHO-produced
NCB (Normalized Cell Binding) [12]: 417 | NCB (Normalized Cell Binding) [13]: 366 | MFI [14]: 6310 MFI | MFI [15]: 3410 MFI

B8: Antibody No. V011 (ADI-70328) IgG1 (antibody, V domains shown)
VH: B1 VH with D28N, K30D, E52D, D57N
VL: B1 VL
notes: IgG1, CHO-produced
MFI [14]: 5910 MFI | MFI [15]: 3000 MFI

B9: Antibody No. V005 (ADI-67448) IgG1 (antibody, V domains shown)
VH: B1 VH with D28N, K30D, I48M, E52D, D57N, V59I
VL: B1 VL with S5T, S61E, V95K, F99S
notes: IgG1, CHO-produced; VH as printed is identical to that of V004
MFI [14]: 5940 MFI | MFI [15]: 3150 MFI

B10: Antibody No. V012 (ADI-70329) IgG1 (antibody, V domains shown)
VH: B1 VH with D28N, I29D, E52D, D56A, D57E, G66D
VL: B1 VL
notes: IgG1, CHO-produced
MFI [14]: 5800 MFI | MFI [15]: 3020 MFI

B11: Antibody No. V002 (ADI-67445) IgG1 (antibody, V domains shown)
VH: B1 VH with D28N, I48M, E52D, D56A, D57E, V59I, G66D, V108E
VL: B1 VL with S5T, S61E, V95K, F99S
notes: IgG1, CHO-produced
NCB (Normalized Cell Binding) [12]: 388 | NCB (Normalized Cell Binding) [13]: 320 | MFI [14]: 5960 MFI | MFI [15]: 3040 MFI
